The text below walks through data of paper PMC10989685, “Structural and functional characterization of the IgSF21-neurexin2α complex and its related signaling pathways in the regulation of inhibitory synapse organization” (Frontiers in Molecular Neuroscience, 2024).

The target of the experiment is T1, Recombinant human Fc-tagged NRXN2α (human Nrxn2α-Fc, R&D Systems #6636-NX) (human, UniProt Q9P2S2 29-1636).
T1 construct: Neurexin2α (Nrxn2α), human, ectodomain; The catalogue number is printed for the pull-down only; Limits and splice variant are in the supplier's data sheet; also called soluble Nrxn2α ectodomain; soluble Nrxn2α; source: bought: R&D Systems (#6636-NX), highly purified
The experiment can be described thus: SPR; Biacore T200; IgSF21-His amine-coupled to a CM5 chip (500 RU); NRXN2α-Fc as analyte, 0 to 200 nM; PBS pH 7.4, 0.025% Tween-20, 25°C, 20 μl/min; one-site Langmuir (1:1) model, kinetic analysis. To be noted: both partners purified.

T1 sequence (Q9P2S2 29-1636): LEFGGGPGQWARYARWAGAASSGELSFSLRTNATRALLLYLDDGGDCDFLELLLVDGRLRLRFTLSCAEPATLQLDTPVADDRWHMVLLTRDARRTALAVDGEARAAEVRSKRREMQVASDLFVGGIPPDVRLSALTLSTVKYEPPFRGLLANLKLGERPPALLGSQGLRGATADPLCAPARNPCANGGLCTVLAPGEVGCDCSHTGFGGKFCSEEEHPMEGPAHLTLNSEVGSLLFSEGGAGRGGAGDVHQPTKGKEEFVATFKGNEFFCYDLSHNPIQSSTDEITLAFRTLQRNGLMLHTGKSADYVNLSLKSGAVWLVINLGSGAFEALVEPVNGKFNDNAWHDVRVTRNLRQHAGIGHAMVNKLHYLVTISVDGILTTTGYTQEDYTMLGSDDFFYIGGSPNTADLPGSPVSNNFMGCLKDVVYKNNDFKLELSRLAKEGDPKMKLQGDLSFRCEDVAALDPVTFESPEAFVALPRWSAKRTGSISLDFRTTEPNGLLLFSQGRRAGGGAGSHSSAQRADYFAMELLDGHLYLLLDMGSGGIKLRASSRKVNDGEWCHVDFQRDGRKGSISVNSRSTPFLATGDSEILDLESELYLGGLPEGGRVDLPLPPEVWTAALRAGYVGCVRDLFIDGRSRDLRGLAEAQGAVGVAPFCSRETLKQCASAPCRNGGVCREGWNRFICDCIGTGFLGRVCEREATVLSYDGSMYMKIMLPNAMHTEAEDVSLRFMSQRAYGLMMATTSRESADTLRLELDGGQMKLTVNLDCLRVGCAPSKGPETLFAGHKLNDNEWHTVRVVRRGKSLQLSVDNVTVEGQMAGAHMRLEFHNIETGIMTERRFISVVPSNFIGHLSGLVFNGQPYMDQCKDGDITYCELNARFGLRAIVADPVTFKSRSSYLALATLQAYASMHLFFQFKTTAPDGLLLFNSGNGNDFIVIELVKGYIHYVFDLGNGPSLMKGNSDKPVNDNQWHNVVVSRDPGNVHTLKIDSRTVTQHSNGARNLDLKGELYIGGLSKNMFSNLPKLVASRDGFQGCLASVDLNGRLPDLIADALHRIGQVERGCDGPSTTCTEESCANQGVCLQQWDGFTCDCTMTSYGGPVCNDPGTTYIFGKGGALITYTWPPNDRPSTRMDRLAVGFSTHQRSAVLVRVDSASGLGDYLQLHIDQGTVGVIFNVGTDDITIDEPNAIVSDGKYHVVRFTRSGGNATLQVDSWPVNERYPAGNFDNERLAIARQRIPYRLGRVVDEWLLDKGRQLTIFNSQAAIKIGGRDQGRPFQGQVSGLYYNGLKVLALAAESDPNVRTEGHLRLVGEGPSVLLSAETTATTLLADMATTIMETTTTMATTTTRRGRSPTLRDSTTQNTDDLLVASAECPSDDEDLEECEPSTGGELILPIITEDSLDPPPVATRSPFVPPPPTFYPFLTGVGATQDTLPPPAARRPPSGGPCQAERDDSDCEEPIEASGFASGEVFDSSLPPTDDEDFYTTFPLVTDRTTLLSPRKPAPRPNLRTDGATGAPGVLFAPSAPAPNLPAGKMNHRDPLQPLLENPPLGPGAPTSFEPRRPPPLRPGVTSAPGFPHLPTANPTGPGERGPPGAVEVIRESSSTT

B1: Recombinant human His-tagged IgSF21 protein (R&D Systems #10330-S2) (natural protein, UniProt Q96ID5 25-444, looked up)
chain: YLTVNIEPLPPVVAGDAVTLKCNFKTDGRMREIVWYRVTDGGTIKQKIFTFDAMFSTNYSHMENYRKREDLVYQSTVRLPEVRISDNGPYECHVGIYDRATREKVVLASGNIFLNVMAPPTSIEVVAADTPAPFSRYQAQNFTLVCIVSGGKPAPMVYFKRDGEPIDAVPLSEPPAASSGPLQDSRPFRSLLHRDLDDTKMQKSLSLLDAENRGGRPYTERPSRGLTPDPNILLQPTTENIPETVVSREFPRWVHSAEPTYFLRHSRTPSSDGTVEVRALLTWTLNPQIDNEALFSCEVKHPALSMPMQAEVTLVAPKGPKIVMTPSRARVGDTVRILVHGFQNEVFPEPMFTWTRVGSRLLDGSAEFDGKELVLERVPAELNGSMYRCTAQNPLGSTDTHTRLIVFENPNIPRGTEDSN
notes: Immunoglobulin superfamily member 21 (IgSF21), human, soluble recombinant protein; Soluble bought protein, probably the ectodomain without the GPI-anchor signal; also called IgSF21-His; human IgSF21-His; source: bought: R&D Systems (#10330-S2), purified
For the molecule B1, the Kd came to 5.67 nM.
